Assay results from US8460910B2 (Illumina Cambridge Limited, priority 2003, dated 2013).

How the values were obtained:
[1] = test system: cordycepin (3′deoxy adenosine triphosphate); conditions: Vent polymerase variant; cited from earlier work
[2] = test system: 3′ modified nucleotide analogues; test: Example 1 library screen (ffT-DIG filter assay) and primer extension assay against 9DM control; assay type: biochemical; conditions: variants mutated at regions A and B
Method: Mutations were introduced simultaneously at two regions of the 9° N DNA polymerase sequence, residues 408-410, and residues 484-486. A library of polymerase variants was screened for the incorporation of the 3′ modified nucleotide analogues.
The variant polymerases have increased activity towards the modified nucleotides utilised in the experiments. Thus, they appear to incorporate nucleotide analogues which have been modified at the 3′ sugar hydroxyl such that the substituent is larger in size than the naturally occurring 3′ hydroxyl group in primer extension assays faster than previously available polymerases which can act as a control polymerase, such as the 9° N (-exo) Y409V/A485L double mutant (designated 9DM herein).
There are many different methods for screening for nucleotide incorporation that are variations on the method of Sagner et al. (1991). One suitable method is described herein for the incorporation of 3′ modified nucleotide analogues that uses a digoxigenin-3-O-methyl-carbonyl-e-aminocaproic acid (DIG) derivative of the relevant nucleotide analogue (ffT-DIG)
Remove tape and 3 MM paper and place filter back in petri dish. Add incorporation solution pre-warmed to temperature that incorporation will be tested at. […]
This is a generalised method. […] Also, have ready eppendorf containing 1 μl CHASE mix for each reaction. […]

ddNTPs = conditions: cited from earlier work

Y412V: Vent DNA polymerase with mutation Y412V (Gardner and Jack 1999)
rate enhancement with cordycepin [1]: 2 fold

B1: 2E: L408V/Y409A/P410L R484I/A485S/I486N 9° N mutant; SEQ ID NO: 12 (protein)
chain: MILDTDYITENGKPVIRVFKKENGEFKIEYDRTFEPYFYALLKDDSAIEDVKKVTAKRHGTVVKVKRAEKVQKKFLGRPIEVWKLYFNHPQDVPAIRDRIRAHPAVVDIYEYDIPFAKRYLIDKGLIPMEGDEELTMLAFAIATLYHEGEEFGTGPILMISYADGSEARVITWKKIDLPYVDVVSTEKEMIKRFLRVVREKDPDVLITYNGDNFDFAYLKKRCEELGIKFTLGRDGSEPKIQRMGDRFAVEVKGRIHFDLYPVIRRTINLPTYTLEAVYEAVFGKPKEKVYAEEIAQAWESGEGLERVARYSMEDAKVTYELGREFFPMEAQLSRLIGQSLWDVSRSSTGNLVEWFLLRKAYKRNELAPNKPDERELARRRGGYAGGYVKEPERGLWDNIVYLDFRSVALSIIITHNVSPDTLNREGCKEYDVAPEVGHKFCKDFPGFIPSLLGDLLEERQKIKRKMKATVDPLEKKLLDYRQISNKILANSFYGYYGYAKARWYCKECAESVTAWGREYIEMVIRELEEKFGFKVLYADTDGLHATIPGADAETVKKKAKEFLKYINPKLPGLLELEYEGFYVRGFFVTKKKYAVIDEEGKITTRGLEIVRRDWSEIAKETQARVLEAILKHGDVEEAVRIVKEVTEKLSKYEVPPEKLVIHEQITRDLRDYKATGPHVAVAKRLAARGVKIRPGTVISYIVLKGSGRIGDRAIPADEFDPTKHRYDAEYYIENQVLPAVERILKAFGYRKEDLRYQKTKQVGLGAWLKVKGKK
modifications: 9oN polymerase variant (exo-) with L408V/Y409A/P410L R484I/A485S/I486N mutations
incorporation of 3′ modified nucleotide analogues compared to control polymerase (9DM) [2]: improved incorporation

B2: A486Y variant of Pfu DNA polymerase: Pfu DNA polymerase with A486Y mutation (Evans et al. 2000) (protein, UniProt P61875 1-775, looked up, variant A486Y)
DNA polymerase: MILDVDYITEEGKPVIRLFKKENGKFKIEHDRTFRPYIYALLRDDSKIEEVKKITGERHGKIVRIVDVEKVEKKFLGKPITVWKLYLEHPQDVPTIREKVREHPAVVDIFEYDIPFAKRYLIDKGLIPMEGEEELKILAFDIETLYHEGEEFGKGPIIMISYADENEAKVITWKNIDLPYVEVVSSEREMIKRFLRIIREKDPDIIVTYNGDSFDFPYLAKRAEKLGIKLTIGRDGSEPKMQRIGDMTAVEVKGRIHFDLYHVITRTINLPTYTLEAVYEAIFGKPKEKVYADEIAKAWESGENLERVAKYSMEDAKATYELGKEFLPMEIQLSRLVGQPLWDVSRSSTGNLVEWFLLRKAYERNEVAPNKPSEEEYQRRLRESYTGGFVKEPEKGLWENIVYLDFRALYPSIIITHNVSPDTLNLEGCKNYDIAPQVGHKFCKDIPGFIPSLLGHLLEERQKIKTKMKETQDPIEKILLDYRQKYIKLLANSFYGYYGYAKARWYCKECAESVTAWGRKYIELVWKELEEKFGFKVLYIDTDGLYATIPGGESEEIKKKALEFVKYINSKLPGLLELEYEGFYKRGFFVTKKRYAVIDEEGKVITRGLEIVRRDWSEIAKETQARVLETILKHGDVEEAVRIVKEVIQKLANYEIPPEKLAIYEQITRPLHEYKAIGPHVAVAKKLAAKGVKIKPGMVIGYIVLRGDGPISNRAILAEEYDPKKHKYDAEYYIENQVLPAVLRILEGFGYRKEDLRYQKTRQVGLTSWLNIKKS
improvement of ratio of ddNTP/dNTP in sequencing ladders compared to wild type (ddNTPs): 150 fold
